Measurements as given in paper PMC3324464, “The GPI Anchor Signal Sequence Dictates the Folding and Functionality of the Als5 Adhesin from Candida albicans” (PLoS ONE, 2012).
Entries after “also recorded” stand apart in the source; their conditions may differ.

Key:
[1] = Aggregation by transmission electron microscopy; assay type: physicochemical; conditions: 37 °C
Description: Transmission Electron Microscopy (TEM)
TEM studies were carried out on a JEOL 2100F. The proteins (0.09 mg/ml) were incubated at 37 °C for 2 weeks prior to the measurements. The proteins were spotted on a carbon-coated copper grid and positively stained with 2% uranyl acetate. The sample was then dried and examined by TEM using a 210 kV accelerating voltage.
Figure 5 Transmission electron microscope images showing aggregation by GST-Als5. […] The scale bar in each panel represents 100 nm. Left panel: 10,000X magnification. Right panel: 25,000X magnification.
(A) Prediction of β-aggregation potential for the GPI anchor attachment signal sequence (SS). The prediction of β-aggregation potential for the SS was done using TANGO (residues 1328–1347). Also shown is the propensity for α-helix, β-turn and β-sheet formation in the unfolded polypeptide chain as predicted by TANGO. […] (B). Transmission electron microscope images showing aggregation by SS and SS in the presence of GST-Als5. The samples, SS (40.0 µM), GST-Als5 (0.4 µM) and GST-Als5 (0.4 µM) + SS (40.0 µM) were incubated as 37 °C for two days before TEM images were recorded.

[2] = test system: human collagen type IV; assay: Adhesion assay to immobilised collagen type IV; assay type: binding; conditions: 0.09 mg/ml protein, 37°C 1 hour, anti-GST/HRP, TMB OD650nm; mean of 3 independent experiments in duplicates
Description: Freshly purified GST-Als5 and GST-Als5-SS were checked for their ability to bind to human collagen type IV, following a slightly modified method to that reported. Briefly, a 96-well flat bottom plate was coated with different amounts of collagen type IV and incubated overnight at 4°C. The plate was then washed thrice with PBS and twice with elution buffer. […] The wells were blocked for 1 hour with 5% skimmed milk in PBS and then washed 5 times with wash buffer (1% skimmed milk, 0.025% Tween-20 in PBS). Thereafter, 200 µl/well of primary anti-GST antibody (diluted 1∶1,000) was added. After incubation at 37°C for 1 hour, the wells were washed five times with wash buffer and incubated at 37°C with HRP-conjugated secondary antibody (200 µl/well; diluted 1∶20,000) for 1 hour. The wells were rinsed five times with wash buffer, 100 µl of freshly prepared tetramethylbenzidine solution was added to each well and incubated at 37°C for 1 hour. OD650nm was monitored on a plate reader (Spectramax M2). […]
Figure 3 Adhesion of Als5 to collagen type IV involves recognition of carbohydrate residues on collagen type IV but is not solely determined by it. […] Adhesion of the proteins to collagen type IV was correlated to the absorbance at 650 nm observed by the oxidation of TMB, the substrate of HRP. […] Adherence to collagen type IV was detected as already described. […]

[3] = test system: collagen type IV treated with N-Glycosidase F; assay: Adhesion to N-glycosidase F treated collagen type IV; assay type: binding, human; conditions: 0.5 U N-glycosidase F, 3 hours; data not shown
Description: Figure 3 Adhesion of Als5 to collagen type IV involves recognition of carbohydrate residues on collagen type IV but is not solely determined by it. (A) Adhesion of GST-Als5, GST-Als5-SS to collagen type IV. Different amounts of collagen type IV, as shown in the figure, were immobilized in 96-well flat bottomed ELISA plates and incubated with the proteins (0.09 mg/ml) of interest at 37 °C for 1 hour. The adhesion assay was carried out as described in Experimental Procedures. Adhesion of the proteins to collagen type IV was correlated to the absorbance at 650 nm observed by the oxidation of TMB, the substrate of HRP. […] Buffer controls (OD 650nm of 0.126 ± 0.003), corresponding to no immobilized collagen, have been subtracted in all cases. […] The data presented is mean of 3 independent experiments done in duplicates. […] (B) Treatment of collagen type IV with N-Glycosidase F results in decrease in adherence of GST-Als5. […] Adherence to collagen type IV was detected as already described. […]
Supplementary file pone.0035305.s005.tif: Figure S5 Treatment of collagen type IV with N-Glycosidase F results in decrease in adherence of GST-Als5. […] GST-Als5 was incubated before the adherence was detected by using primary anti-GST antibody and anti-rabbit HRP-conjugated secondary antibody and is represented in this figure by the Absorbance at 650nm observed upon oxidation of the specific substrate of HRP. […]

B1: GST-Als5: GST fusion of full length Als5 minus the GPI anchor attachment signal sequence, expressed in E. coli (protein)
chain: ITGIFNSIDSLTWSNAGNYAFKGPGYPTWNAVLGWSLDGTSANPGDTFILNMPCVFKFTASQKSVDLTADGVKYATCQFYSGEEFTTFSSLKCTVNNNLRSSIKALGTVTLPIAFNVGGTGSSVDLEDSKCFTAGTNTVTFNDGSKKLSIAVNFEKSTVDQSGYLTTSRFMPSLNKIATLYVAPQCENGYTSGTMGFSTSYGDVAIDCSNVHIGISKGVNDWNHPVTSESFSYTKSCSSFGISITYQNVPAGYRPFIDAYISPSDNNQYQLSYKNDYTCVDDYWQHAPFTLKWTGYKNSDAGSNGIVIVATTRTVTDSTTAVTTLPFNPSVDKTKTIEILQPIPTTTITTSYVGVTTSYSTKTAPIGETATVIVDVPYHTTTTVTSEWTGTITTTTTRTNPTDSIDTVVVQVPLPNPTTTTTQFWSESFTSTTTITNSLKGTDSVIVREPHNPTVTTTEFWSESYATTETITNGPEGTDSVIVREPHNPTVTTTEFWSESYATTETVTNKPEGTDSVIIKEPHNPTVTTTEFWSESYATTETITTGPLGTDSIVIHDPLEESSSTTAIESSDSNISSSAQESSSSVEQSSSIVGLSSSSDIPLSSDMPSSSSTGLTSSESSTVSSYDSDSSSSSELSTFSSSESYSSSISDTTNFWDSSSSDLESTSITWSSSIDAQSSQSVQSVSNSISTSQETTSSSGEESNTSVTDILVSSDASSILNSDISSYYPSSTISLSDDFPHTIAGEPDSRSSSSIASTVEISSDLVSLTSDPTSSFDSSSSLNSDSSSSPFSDESDISASSSFSTLVAPSFSLSSSSSLSLTYPHYVNSTTYHASESESSSVASPSMASESANDDTHTLSESTDTTSSIGTDSSTVTFCRRDNGDGCIVTGMPSSSIDSEQTSDVTTTSSFVASSTPTSAEQSITDNPNIDSSQTSASSSTKSSVSVSDTVVNSISLSETSTLSSDDSTSSDTSISSTTNSDTGNINAGSSHTSTASIKESSIQKTGVMLSSSYLSTKLSSTSDITTELITTELITTELTTIEDNEPNTFTSTPSSHSEIFSSDNSVLSKQVDRESTIKTSPTTDVTTVSSLSVHSTEASTATLGENSFSNVASTPSNIATSLRSTSSSSNHATESSGTVKSEASAEAIPSPPTSTDNRLSYSTEEAKGITYANSGSTNNLITESQVAAPTDSTSVLIENPVVTSTFDDNSSAAVDQPSKTKSIEESIMNPDSTNETNNGFIATLSQAQVPNSLIHSESISTTMAKTTDASINGDSAASNSQPTTLIQQVATSSYNQPLITTYAGSSS
modifications: left off: GST, N-terminal, kept
[1]; 2 weeks, 0.4 µM / 0.09 mg/ml (method)
  aggregation (in words): significantly higher amount of aggregation as compared to either GST-Als5-SS or GST alone; also recorded: showed significant amount of aggregation
[1]; 2 days, SS 40.0 µM, GST-Als5 0.4 µM, alone or together
  aggregation (in words): aggregates both in the absence as well as in the presence of SS
[2]
  adhesion to collagen type IV (in words): greater adherence to collagen type IV as compared to GST-Als5-SS
[3]
  effect of longer deglycosylation on adhesion (in words): did not further reduce the adhesion
